# Laboratory results reported in patent US20230220042A1 (SHANGHAI JIAO TONG UNIVERSITY SCHOOL OF MEDICINE, published 2023).
# Residue numbers refer to the chain shown, from its start. Names and notes keep the numbering of the source.
# T1: FcγRIIB (human, UniProt P31994 43-217, biotin-labeled)
# T1 construct: extracellular domain; Bought protein; also called CD32b
# T1 sequence (looked up): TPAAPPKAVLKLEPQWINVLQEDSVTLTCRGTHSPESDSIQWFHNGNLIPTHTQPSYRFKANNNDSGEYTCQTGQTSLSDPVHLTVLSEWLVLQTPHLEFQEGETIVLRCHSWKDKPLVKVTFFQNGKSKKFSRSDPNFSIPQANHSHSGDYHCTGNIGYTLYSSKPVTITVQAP
# T2: FcγRIIA^131R (human, UniProt P12318 34-217, biotin-labeled)
# T2 construct: extracellular domain; Bought protein; also called RIIAR
# T2 sequence (looked up): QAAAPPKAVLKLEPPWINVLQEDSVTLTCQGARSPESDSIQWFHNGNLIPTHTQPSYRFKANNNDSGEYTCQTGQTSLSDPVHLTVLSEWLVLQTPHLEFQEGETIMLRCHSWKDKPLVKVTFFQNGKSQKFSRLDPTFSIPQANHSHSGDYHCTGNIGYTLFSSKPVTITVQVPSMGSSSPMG
# T3: FcγRIIA^131H (human, UniProt P12318 34-217, biotin-labeled)
# T3 construct: extracellular domain; Bought protein; also called RIIAH
# T3 sequence (looked up): T2 sequence (looked up) with R134H
# B1: anti-human OX40 IgG2 antibody Mut_20 (V266L/S267E/H268S/E269A/P271C) (antibody, name in EU numbering)
# heavy: QVQLQESGPGLVKPSGTLSLTCAVSGGSISSSIWWSWVRQPPGKGLEWIGEIHHSGNTNCNPSLKSRVTISIDKSKNQFSLKLTSVTAADTAVYYCARAGTGTTLDYWGQGTLVTVSSASTKGPSVFPLAPCSRSTSESTAALGCLVKDYFPEPVTVSWNSGALTSGVHTFPAVLQSSGLYSLSSVVTVPSSNFGTQTYTCNVDHKPSNTKVDKTVERKCCVECPPCPAPPVAGPSVFLFPPKPKDTLMISRTPEVTCVVVDLESADCEVQFNWYVDGVEVHNAKTKPREEQFNSTFRVVSVLTVVHQDWLNGKEYKCKVSNKGLPAPIEKTISKTKGQPREPQVYTLPPSREEMTKNQVSLTCLVKGFYPSDIAVEWESNGQPENNYKTTPPMLDSDGSFFLYSKLTVDKSRWQQGNVFSCSVMHEALHNHYTQKSLSLSPGK
# light: EIVLTQSPGTLSLSPGERATLSCRASQSVSGDYLAWYQQKLGQAPRLLIYGASIRATGIPDRFSGSGSGTDFTLTISKLEPEDFAVYYCQQYGSSPLTFGGGTKVEIKRTVAAPSVFIFPPSDEQLKSGTASVVCLLNNFYPREAKVQWKVDNALQSGNSQESVTEQDSKDSTYSLSSTLTLSKADYEKHKVYACEVTHQGLSSPVTKSFNRGEC
# notes: Substitutions in Eu numbering; entries include an unstated signal peptide
# B2: anti-human OX40 IgG2 antibody Mut_21 (S267V/S298G/L328W) (antibody, name in EU numbering)
# heavy: B1 heavy with L263V, E264V, S265H, A266E, C268P, S295G, L325W
# light: B1 light
# notes: as for B1
# B3: anti-human OX40 IgG2 antibody Mut_22 (V266L/S267M/H268E/P271Q) (antibody, name in EU numbering)
# heavy: B1 heavy with E264M, S265E, A266E, C268Q
# light: B1 light
# notes: as for B1
# B4: anti-human OX40 IgG2 antibody Mut_23 (V266L/S267E/E269K/P271G) (antibody, name in EU numbering)
# heavy: B1 heavy with S265H, A266K, C268G
# light: B1 light
# notes: as for B1
# B5: anti-human OX40 IgG2 antibody Mut_24 (V266L/S267E/H268S/E269G/P271T) (antibody, name in EU numbering)
# heavy: B1 heavy with A266G, C268T
# light: B1 light
# notes: as for B1
# B6: anti-human OX40 IgG2 antibody Mut_25 (V234Q/V266L/S267D/H268D/E269D/P271Q) (antibody)
# heavy: B1 heavy with V232Q, E264D, S265D, A266D, C268Q
# light: B1 light
# notes: as for B1
# B7: anti-human OX40 IgG2 antibody Mut_27 (V266L/S267E/H268S/P271V) (antibody, name in EU numbering)
# heavy: B1 heavy with A266E, C268V
# light: B1 light
# notes: as for B1
# B8: anti-human OX40 IgG2 antibody Mut_28 (P233G/S267E/S298G) (antibody)
# heavy: B1 heavy with P231G, L263V, S265H, A266E, C268P, S295G
# light: B1 light
# notes: as for B1
# B9: anti-human OX40 IgG2 antibody Mut_30 (V234Q/V266L/S267E/H268S/E269V) (antibody)
# heavy: B1 heavy with V232Q, A266V, C268P
# light: B1 light
# notes: as for B1
# B10: anti-human OX40 IgG2 antibody Mut_8 (V266L/L328W) (antibody, name in EU numbering)
# heavy: B1 heavy with E264S, S265H, A266E, C268P, L325W
# light: B1 light
# notes: as for B1
# Assays:
# [1] = target: T1, FcγRIIB; assay: ELISA; relative affinity to FcγRIIB over that to FcγRIIA131R
# [2] = target: T2, FcγRIIA^131R; assay: ELISA, coated antibody, biotin-FcγR;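 on Absorbance value: antibody coated at 2 µg/mL at 100 µL per well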
# [3] = target: T4, FcγRIIIA^158F (human, UniProt P08637 17-208, biotin-labeled); assay: ELISA, coated antibody, biotin-FcγR;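 on Absorbance value: antibody coated at 2 µg/mL at 100 µL per well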
# T4 construct: extracellular domain; Bought protein; also called RIIIAF
# [4] = target: T5, FcγRI (human, UniProt P12314 16-292, biotin-labeled); assay: ELISA, coated antibody, biotin-FcγR;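 on Absorbance value: antibody coated at 2 µg/mL at 100 µL per well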
# T5 construct: extracellular domain; Bought protein; also called CD64
# [5] = target: T6, FcγRIIIA^158V (human, UniProt P08637 17-208, biotin-labeled); assay: ELISA, coated antibody, biotin-FcγR;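 on Absorbance value: antibody coated at 2 µg/mL at 100 µL per well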
# T6 construct: extracellular domain; Bought protein; also called RIIIAV; CD16a 158V
# [6] = target: T3, FcγRIIA^131H; assay: ELISA, coated antibody, biotin-FcγR;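 on Absorbance value: antibody coated at 2 µg/mL at 100 µL per well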
# [7] = target: T1, FcγRIIB; assay: ELISA, coated antibody, biotin-FcγR;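 on Absorbance value: antibody coated at 2 µg/mL at 100 µL per well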
# T6 sequence (P08637 17-208 F176V): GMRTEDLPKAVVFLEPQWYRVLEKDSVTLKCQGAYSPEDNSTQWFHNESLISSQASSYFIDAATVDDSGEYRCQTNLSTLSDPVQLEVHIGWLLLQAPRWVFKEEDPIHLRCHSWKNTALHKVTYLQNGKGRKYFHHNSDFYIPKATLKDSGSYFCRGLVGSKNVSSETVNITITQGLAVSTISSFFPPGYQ
# T5 sequence (P12314 16-292): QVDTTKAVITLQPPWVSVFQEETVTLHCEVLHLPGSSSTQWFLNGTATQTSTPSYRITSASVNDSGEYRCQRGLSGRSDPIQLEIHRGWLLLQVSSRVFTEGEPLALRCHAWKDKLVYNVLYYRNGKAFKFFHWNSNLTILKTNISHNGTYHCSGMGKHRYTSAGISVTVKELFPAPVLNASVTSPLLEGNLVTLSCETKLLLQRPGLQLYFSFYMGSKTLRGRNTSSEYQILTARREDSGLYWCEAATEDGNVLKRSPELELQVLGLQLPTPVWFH
# T4 sequence (P08637 17-208): as the sequence (P08637 17-208 F176V) above, with V160F counted along it
binder,measurement,setting,value
B1,RIIB/RIIAR,[1],0.85 ratio
same,Absorbance value,[2],0.46 A650
same,Relative binding affinity RIIAR/G1,[2],1.76 ratio
same,Absorbance value,[3],0.06 A650
same,Relative binding affinity RIIIAF/G1,[3],0.31 ratio
same,Absorbance value,[4],0.12 A650
same,Relative binding affinity RI/G1,[4],0.05 ratio
same,Absorbance value,[5],0.05 A650
same,Relative binding affinity RIIIAV/G1,[5],0.06 ratio
same,Absorbance value,[6],0.48 A650
same,Relative binding affinity RIIAH/G1,[6],0.85 ratio
same,Absorbance value,[7],1.13 A650
same,Increased factor of RIIB binding compared with wild-type IgG2,[7],15.1 fold
same,Relative binding affinity RIIB/G1,[7],1.5 ratio
B2,RIIB/RIIAR,[1],1.03 ratio
same,Absorbance value,[2],0.11 A650
same,Relative binding affinity RIIAR/G1,[2],0.41 ratio
same,Absorbance value,[3],0.06 A650
same,Relative binding affinity RIIIAF/G1,[3],0.31 ratio
same,Absorbance value,[4],0.16 A650
same,Relative binding affinity RI/G1,[4],0.06 ratio
same,Absorbance value,[5],0.06 A650
same,Relative binding affinity RIIIAV/G1,[5],0.06 ratio
same,Absorbance value,[6],0.09 A650
same,Relative binding affinity RIIAH/G1,[6],0.16 ratio
same,Absorbance value,[7],0.32 A650
same,Increased factor of RIIB binding compared with wild-type IgG2,[7],4.23 fold
same,Relative binding affinity RIIB/G1,[7],0.42 ratio
B3,RIIB/RIIAR,[1],1.05 ratio
same,Absorbance value,[2],0.31 A650
same,Relative binding affinity RIIAR/G1,[2],1.17 ratio
same,Absorbance value,[3],0.06 A650
same,Relative binding affinity RIIIAF/G1,[3],0.33 ratio
same,Absorbance value,[4],0.12 A650
same,Relative binding affinity RI/G1,[4],0.05 ratio
same,Absorbance value,[5],0.07 A650
same,Relative binding affinity RIIIAV/G1,[5],0.07 ratio
same,Absorbance value,[6],0.33 A650
same,Relative binding affinity RIIAH/G1,[6],0.57 ratio
same,Absorbance value,[7],0.93 A650
same,Increased factor of RIIB binding compared with wild-type IgG2,[7],12.3 fold
same,Relative binding affinity RIIB/G1,[7],1.22 ratio
B4,RIIB/RIIAR,[1],0.9 ratio
same,Absorbance value,[2],0.38 A650
same,Relative binding affinity RIIAR/G1,[2],1.44 ratio
same,Absorbance value,[3],0.07 A650
same,Relative binding affinity RIIIAF/G1,[3],0.35 ratio
same,Absorbance value,[4],0.11 A650
same,Relative binding affinity RI/G1,[4],0.04 ratio
same,Absorbance value,[5],0.06 A650
same,Relative binding affinity RIIIAV/G1,[5],0.06 ratio
same,Absorbance value,[6],0.43 A650
same,Relative binding affinity RIIAH/G1,[6],0.75 ratio
same,Absorbance value,[7],0.97 A650
same,Increased factor of RIIB binding compared with wild-type IgG2,[7],13 fold
same,Relative binding affinity RIIB/G1,[7],1.29 ratio
B5,RIIB/RIIAR,[1],0.98 ratio
same,Absorbance value,[2],0.35 A650
same,Relative binding affinity RIIAR/G1,[2],1.35 ratio
same,Absorbance value,[3],0.08 A650
same,Relative binding affinity RIIIAF/G1,[3],0.42 ratio
same,Absorbance value,[4],0.12 A650
same,Relative binding affinity RI/G1,[4],0.05 ratio
same,Absorbance value,[5],0.08 A650
same,Relative binding affinity RIIIAV/G1,[5],0.08 ratio
same,Absorbance value,[6],0.48 A650
same,Relative binding affinity RIIAH/G1,[6],0.84 ratio
same,Absorbance value,[7],1 A650
same,Increased factor of RIIB binding compared with wild-type IgG2,[7],13.3 fold
same,Relative binding affinity RIIB/G1,[7],1.32 ratio
B6,RIIB/RIIAR,[1],1.01 ratio
same,Absorbance value,[2],0.3 A650
same,Relative binding affinity RIIAR/G1,[2],1.13 ratio
same,Absorbance value,[3],0.07 A650
same,Relative binding affinity RIIIAF/G1,[3],0.36 ratio
same,Absorbance value,[4],0.12 A650
same,Relative binding affinity RI/G1,[4],0.05 ratio
same,Absorbance value,[5],0.05 A650
same,Relative binding affinity RIIIAV/G1,[5],0.06 ratio
same,Absorbance value,[6],0.06 A650
same,Relative binding affinity RIIAH/G1,[6],0.1 ratio
same,Absorbance value,[7],0.86 A650
same,Increased factor of RIIB binding compared with wild-type IgG2,[7],11.5 fold
same,Relative binding affinity RIIB/G1,[7],1.14 ratio
B7,RIIB/RIIAR,[1],0.87 ratio
same,Absorbance value,[2],0.28 A650
same,Relative binding affinity RIIAR/G1,[2],1.06 ratio
same,Absorbance value,[3],0.09 A650
same,Relative binding affinity RIIIAF/G1,[3],0.49 ratio
same,Absorbance value,[4],0.18 A650
same,Relative binding affinity RI/G1,[4],0.07 ratio
same,Absorbance value,[5],0.1 A650
same,Relative binding affinity RIIIAV/G1,[5],0.11 ratio
same,Absorbance value,[6],0.48 A650
same,Relative binding affinity RIIAH/G1,[6],0.84 ratio
same,Absorbance value,[7],0.7 A650
same,Increased factor of RIIB binding compared with wild-type IgG2,[7],9.29 fold
same,Relative binding affinity RIIB/G1,[7],0.92 ratio
B8,RIIB/RIIAR,[1],0.87 ratio
same,Absorbance value,[2],0.35 A650
same,Relative binding affinity RIIAR/G1,[2],1.35 ratio
same,Absorbance value,[3],0.08 A650
same,Relative binding affinity RIIIAF/G1,[3],0.44 ratio
same,Absorbance value,[4],0.13 A650
same,Relative binding affinity RI/G1,[4],0.05 ratio
same,Absorbance value,[5],0.08 A650
same,Relative binding affinity RIIIAV/G1,[5],0.08 ratio
same,Absorbance value,[6],0.14 A650
same,Relative binding affinity RIIAH/G1,[6],0.24 ratio
same,Absorbance value,[7],0.88 A650
same,Increased factor of RIIB binding compared with wild-type IgG2,[7],11.8 fold
same,Relative binding affinity RIIB/G1,[7],1.17 ratio
B9,RIIB/RIIAR,[1],1.05 ratio
same,Absorbance value,[2],0.26 A650
same,Relative binding affinity RIIAR/G1,[2],1.01 ratio
same,Absorbance value,[3],0.06 A650
same,Relative binding affinity RIIIAF/G1,[3],0.33 ratio
same,Absorbance value,[4],0.12 A650
same,Relative binding affinity RI/G1,[4],0.05 ratio
same,Absorbance value,[5],0.06 A650
same,Relative binding affinity RIIIAV/G1,[5],0.07 ratio
same,Absorbance value,[6],0.18 A650
same,Relative binding affinity RIIAH/G1,[6],0.32 ratio
same,Absorbance value,[7],0.8 A650
same,Increased factor of RIIB binding compared with wild-type IgG2,[7],10.7 fold
same,Relative binding affinity RIIB/G1,[7],1.06 ratio
B10,RIIB/RIIAR,[1],1.09 ratio
same,Absorbance value,[2],0.34 A650
same,Relative binding affinity RIIAR/G1,[2],1.3 ratio
same,Absorbance value,[3],0.08 A650
same,Relative binding affinity RIIIAF/G1,[3],0.44 ratio
same,Absorbance value,[4],0.14 A650
same,Relative binding affinity RI/G1,[4],0.05 ratio
same,Absorbance value,[5],0.07 A650
same,Relative binding affinity RIIIAV/G1,[5],0.07 ratio
same,Absorbance value,[6],0.52 A650
same,Relative binding affinity RIIAH/G1,[6],0.9 ratio
same,Absorbance value,[7],1.07 A650
same,Increased factor of RIIB binding compared with wild-type IgG2,[7],14.3 fold
same,Relative binding affinity RIIB/G1,[7],1.42 ratio
